PMC12974149

Biological target: Rabbit skeletal actin, filamentous (F-actin) (rabbit) (UniProt P68135)
Test: fluorescence microscopy of purified drebrin on actin filaments

Substance “mouse drebrin isoform E (natural protein)” has a fraction of actin filaments heavily (>50%) decorated by drebrin of 16%.
